Source: publication doi:10.1101/714097 (bioRxiv, 2019)

B1: InvG (natural protein)
chain: SEKIPVTGSGFVAKDDSLRTFFDAMALQLKEPVIVSKMAARKKITGNFEFHDPNALLEKLSLQLGLIWYFDGQAIYIYDASEMRNAVVSLRNVSLNEFNNFLKRSGLYNKNYPLRGDNRKGTFYVSGPPVYVDMVVNAATMMDKQNDGIELGRQKIGVMRLNNTFVGDRTYNLRDQKMVIPGIATAIERLLQGEEQPLGNIVSSEPPAMPAFSANGEKGKAANYAGGMSLQEALKQNAAAGNIKIVAYPDTNSLLVKGTAEQVHFIEMLVKALDVAKRHVELSLWIVDLNKSDLERLGTSWSGSITIGDKLGVSLNQSSISTLDGSRFIAAVNALEEKKQATVVSRPVLLTQENVPAIFDNNRTFYTKLIGERNVALEHVTYGTMIRVLPRFSADGQIEMSLDIEDGNDKTPQSDTTTSVDALPEVGRTLISTIARVPHGKSLLVGGYTRDANTDTVQSIPFLGKLPLIGSLFRYSSKNKSNVVRVFMIEPKEIVDPLTPDASESVNNILKQSGAWSGDDKLQKWVRVYLDRGQEAIK
B2: PrgK (natural protein)
chain: CKDKDLLKGLDQEQANEVIAVLQMHNIEANKIDSGKLGYSITVAEPDFTAAVYWIKTYQLPPRPRVEIAQMFPADSLVSSPRAEKARLYSAIEQRLEQSLQTMEGVLSARVHISYDIDAGENGRPPKPVHLSALAVYERGSPLAHQISDIKRFLKNSFADVDYDNISVVLSERSDAQLQAPGTPVKRNSFATSWIVLIILLSVMSAGFGVWYYKNHYARNKKGITADDKAKSSNE
B3: PrgH (natural protein)
chain: METSKEKTITSPGPYIVRLLNSSLNGCEFPLLTGRTLFVVGQSDALTASGQLPDIPADSFFIPLDHGGVNFEIQVDTDATEIILHELKEGNSESRSVQLNTPIQVGELLILIRPESEPWVPEQPEKLETSAKKNEPRFKNGIVAALAGFFILGIGTVGTLWILNSPQRQAAELDSLLGQEKERFQVLPGRDKMLYVAAQNERDTLWARQVLARGDYDKNARVINENEENKRISIWLDTYYPQLAYYRIHFDEPRKPVFWLSRQRNTMSKKELEVLSQKLRALMPYADSVNITLMDDVTAAGQAEAGLKQQALPYSRRNHKGGVTFVIQGALDDVEILRARQFVDSYYRTWGGRYVQFAIELKDDWLKGRSFQYGAEGYIKMSPGHWYFPSPL
B4: SpaQ (natural protein)
chain: MDDLVFAGNKALYLVLILSGWPTIVATIIGLLVGLFQTVTQLQEQTLPFGIKLLGVCLCLFLLSGWYGEVLLSYGRQVIFLALAKG
B5: SpaP (natural protein)
chain: MGNDISLIALLAFSTLLPFIIASGTCFVKFSIVFVMVRNALGLQQIPSNMTLNGVALLLSMFVMWPIMHDAYVYFEDEDVTFNDISSLSKHVDEGLDGYRDYLIKYSDRELVQFFENAQLKRQYGEETETVKRDKDEIEKPSIFALLPAYALSEIKSAFKIGFYLYLPFVVVDLVVSSVLLALGMMMMSPVTISTPIKLVLFVALDGWTLLSKGLILQYMDIAT

Target: the molecule itself
Assay: cryo-EM structure

Protein | stoichiometry N
B1 | 15
B2 | 23
B3 | 23

Target: the molecule itself
Assay: cryo-EM structure
Remark: another data set of the same source

Protein | stoichiometry N
B4 | 4
B1 | 16
B2 | 24
B3 | 24
B5 | 5
